Source: paper PMC9788556 (2022)
Read-outs that look alike come from different tables or passages of the source.

T1: Pfs230 D1 (aa 587–731) (Plasmodium falciparum, UniProt P68874 587-731)
T1 chain: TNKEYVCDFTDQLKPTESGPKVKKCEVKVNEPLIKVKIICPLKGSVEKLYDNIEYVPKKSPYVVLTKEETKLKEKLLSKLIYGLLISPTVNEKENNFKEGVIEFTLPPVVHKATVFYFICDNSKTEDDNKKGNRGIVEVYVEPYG

T2: Pfs230 D1D2 (aa 587–889) (Plasmodium falciparum, UniProt P68874 587-889)
T2 chain: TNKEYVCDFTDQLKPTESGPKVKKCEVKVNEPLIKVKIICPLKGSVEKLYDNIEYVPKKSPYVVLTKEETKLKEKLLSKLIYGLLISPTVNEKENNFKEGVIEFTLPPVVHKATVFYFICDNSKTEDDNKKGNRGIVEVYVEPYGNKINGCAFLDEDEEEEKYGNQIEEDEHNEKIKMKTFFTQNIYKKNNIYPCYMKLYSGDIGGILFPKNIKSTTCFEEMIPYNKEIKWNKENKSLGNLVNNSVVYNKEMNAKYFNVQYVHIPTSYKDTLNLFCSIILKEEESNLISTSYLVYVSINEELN

T3: Pfs230 Pro-D1D2 (aa 532–889) (Plasmodium falciparum, UniProt P68874 532-889)
T3 chain: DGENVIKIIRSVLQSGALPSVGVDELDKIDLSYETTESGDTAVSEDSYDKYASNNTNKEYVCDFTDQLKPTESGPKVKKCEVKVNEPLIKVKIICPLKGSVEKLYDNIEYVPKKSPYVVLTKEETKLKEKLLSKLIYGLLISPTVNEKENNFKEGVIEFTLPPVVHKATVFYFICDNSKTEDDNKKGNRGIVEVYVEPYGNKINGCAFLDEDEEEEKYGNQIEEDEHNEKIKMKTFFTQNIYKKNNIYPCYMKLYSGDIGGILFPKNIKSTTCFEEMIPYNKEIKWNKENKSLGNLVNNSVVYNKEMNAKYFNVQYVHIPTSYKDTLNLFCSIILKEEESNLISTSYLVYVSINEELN


Columns and labels:
Pfs230 D1 (aa 587–731) [1] = biological target: T1, Pfs230 D1 (aa 587–731); assay: BLI
Pfs230 D1 (aa 587–731) [2] = biological target: T1, Pfs230 D1 (aa 587–731); assay: BLI; representative curve
Pfs230 D1 (aa 587–731) [3] = biological target: T1, Pfs230 D1 (aa 587–731); assay: BLI
Pfs230 D1D2 (aa 587–889) [4] = biological target: T2, Pfs230 D1D2 (aa 587–889); assay: BLI
Pfs230 D1D2 (aa 587–889) [5] = biological target: T2, Pfs230 D1D2 (aa 587–889); assay: BLI; representative curve
Pfs230 D1D2 (aa 587–889) [6] = biological target: T2, Pfs230 D1D2 (aa 587–889); assay: BLI
[7] = biological target: T3, Pfs230 Pro-D1D2 (aa 532–889); assay: BLI
Pfs230 D1D2 (aa 587–889) [8] = biological target: T2, Pfs230 D1D2 (aa 587–889); assay: BLI
Pfs230 D1D2 (aa 587–889) [9] = biological target: T2, Pfs230 D1D2 (aa 587–889); assay: BLI; representative curve
[10] = biological target: T3, Pfs230 Pro-D1D2 (aa 532–889); assay: BLI; only three curves fitted
[11] = biological target: T3, Pfs230 Pro-D1D2 (aa 532–889); assay: BLI; representative curve; only three curves fitted

Row | Binder | Kd (Pfs230 D1 (aa 587–731) [1]) [nM] | Kd (Pfs230 D1 (aa 587–731) [2]) [nM] | koff (Pfs230 D1 (aa 587–731) [3]) [s⁻¹] | Kd (Pfs230 D1D2 (aa 587–889) [4]) [nM] | Kd (Pfs230 D1D2 (aa 587–889) [5]) [nM] | koff (Pfs230 D1D2 (aa 587–889) [6]) [s⁻¹] | koff [7] [s⁻¹] | koff (Pfs230 D1D2 (aa 587–889) [8]) [s⁻¹] | Kd (Pfs230 D1D2 (aa 587–889) [9]) [nM] | koff [10] [s⁻¹] | Kd [11] [nM]
1 | nanobody D1 (VHH) VHH: QVQLQESGGGLVQAGDSLRLSCTASGRTFSNHAMGWFRQAPGKEREIVAVIFGTGRNSWYVDSVKGRFTISRDNAKNTVALQMNRLKPEDTAVYYCASGRTWYSGSSMAEYDYWGQGTQVTVSS | 0.14 | 0.29 | 3.72e-05 |  |  |  |  |  |  |  | 
2 | nanobody A10 (VHH) VHH: QVQLQESGGGLVQAGSSLRLSCAASGGTFSNYAMGWFRQAPGKEREFVAAIGWSGGTYYTDSVEGRFTISRDNAKNTVYLQMNSLKPEDTAVYYCAAKRSGSSWSERGYDYWGQGTQVTVSS | 3.18 | 4.56 | 0.000788 | 5.87 | 5.5 | 0.000805 |  |  |  |  | 
3 | nanobody D11 (VHH) VHH: QVQLQESGGGLVQAGSSLRLSCAASGRTFSSYAMGWFRQAPGKEREFVAAIGWSGGTYYTDSVEGRFTISRDNAENTVYLQMNSLKPEDTAVYYCAAKASGSSWSERGYDYWGQGTQVTVSS | 8.31 | 10.8 | 0.00256 | 16.1 | 15.5 | 0.00262 |  |  |  |  | 
4 | nanobody G2 (VHH) VHH: QVQLQESGGGLVQAGGSLRLSCAASGRTFSNYFMGWFRQAPGKEREFVAAVSWSGGSTYYADSVKGRLTISRDNAKNTVYLQMNSLKPEDTAVYYCAAGERYFPMEPRRGYDYWGQGTQVTVSS | 0.49 | 0.36 | 0.000179 | 1.11 | 1.07 | 0.00016 |  |  |  |  | 
5 | nanobody B4 (VHH) VHH: QVQLQESGGGLVQPGGSLRLSCAASGFTLDYYGIGWFRQAPGKEREGVSCISSSDGSTYYADSVKGRFTISRDNAKNTVYLQMNSLKPEDTAVYYCAADLTGIGCTTAQAMGVIGDFGDFGSWGQGTQVTVSS | 1.71 | 2 | 0.00138 | 4.8 | 4.62 | 0.00152 |  |  |  |  | 
6 | nanobody E11 (VHH) VHH: QVQLQESGGGLVQPGGSLRLSCAASGFTSDYYGIGWFRQAPGKEREGVACISSSDGSTYYADSVKGRSTISRDNAKNTVYLQMNSLKPEDTAVYYCAADLSGIGCTTAQAMDVIGDFGDFGSWGQGTQVTVSS | 2.61 | 3.16 | 0.000539 | 2.54 | 2.4 | 0.000733 |  |  |  |  | 
7 | nanobody E1 (VHH) VHH: QVQLQESGGGLVQPGGSLRLSCAASGRTFSSYFMGWFRQAPGKGRVFVASISWSGGSTYYADSVKGRFTISRDNAENTVYLQMNSLKPEDTAVYYCAAGTRATPLDWASGMDYWGKGTQVTVSS | 0.75 | 0.43 | 0.00019 | 3.91 | 3.58 | 0.000409 |  |  |  |  | 
8 | nanobody A11 (VHH) VHH: QVQLQESGGGLVQPGESLRLSCAASGRTSSSYAMGWFRQAPGKEREFVASISWSGGSTYYADSVKGRFTLSRDNAKNTVYLQMNSLKPEDTAVYYCAADGIFYSDYPLSVDDFHSWGQGTQVTVSS | 1.56 | 1.47 | 0.00039 | 1.43 | 1.25 | 0.000152 |  |  |  |  | 
9 | nanobody G5 (VHH) VHH: QVQLQESGGGLVQAGGSLRLSCAASGRTFNDYAMYWFRQAPGKEREFVADITWSGSSTYYADSVKGRFTISRDNAKNTVFLQMNSLKPEDTALYYCAADSRYYGIGIGTPRYWGQGTQVTVSS | 3.36 | 3.25 | 0.000635 | 9.09 | 8.18 | 0.000579 |  |  |  |  | 
10 | F5-Fc (Fc fusion) QVQLQESGGGLVQPGGSLRLSCAASGFTLDRYAIGWFRQAPGKEREGVSCISSSDGSTYYADSVKGRFTISRDNAKNTVYLQMNSLKPEDTAVYYCARDHGPCTVLADILYDYGMDYWGKGTQVTVSS |  |  |  |  |  |  | 0.000644 | 0.000351 | 0.66 |  | 
11 | nanobody F5 (VHH) VHH: QVQLQESGGGLVQPGGSLRLSCAASGFTLDRYAIGWFRQAPGKEREGVSCISSSDGSTYYADSVKGRFTISRDNAKNTVYLQMNSLKPEDTAVYYCARDHGPCTVLADILYDYGMDYWGKGTQVTVSS | 0.81 | 1.01 | 0.000316 | 1.22 | 1.13 | 0.000313 |  |  |  |  | 
12 | nanobody F10 (VHH) VHH: QVQLQESGGGLVQAGGSLRLSCAASGRTFSDYFMGWFRQAPGKEREFVAAVSWSGGSTYYADSVKGRFTISRDNAKNTVFLQMNSLKPEDTAVYYCAGGGSYYPMSPYDGMDYWGKGTQVTVSS | 0.12 | 0.26 | 4.8e-05 | 0.45 | 0.4 | 8.19e-05 |  |  |  |  | 
13 | nanobody D6 (VHH) VHH: QVQLQESGGGLVQAGDSLRLSCAASGRTFSSYFMGWFRQAPGKEREFVAAISWSGGSTYYADSVKGRFTISRDNVKNTVYLQMNSLEPEDAAVYYCAGGGSYYPMSPRNGMDYWGKGTQVTVSS | 0.39 | 0.79 | 0.000158 | 0.63 | 0.51 | 0.000108 |  |  |  |  | 
14 | F10-Fc (Fc fusion) QVQLQESGGGLVQAGGSLRLSCAASGRTFSDYFMGWFRQAPGKEREFVAAVSWSGGSTYYADSVKGRFTISRDNAKNTVFLQMNSLKPEDTAVYYCAGGGSYYPMSPYDGMDYWGKGTQVTVSS |  |  |  |  |  |  |  | 3.99e-05 |  | 0.00171 | 446
